Test results as given in PMC9482650, “Quantitative fragmentomics allow affinity mapping of interactomes” (Nature Communications, 2022).

T1: PDZRN3_1, Q9UPQ7
T1 sequence (Q9UPQ7 244-349, limits assumed, looked up): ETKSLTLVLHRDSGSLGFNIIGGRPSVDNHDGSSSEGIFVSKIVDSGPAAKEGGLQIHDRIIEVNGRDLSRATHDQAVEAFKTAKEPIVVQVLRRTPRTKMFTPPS

T2: ARHGAP21, Q5T5U3
T2 sequence (Q5T5U3 45-169, limits assumed, looked up): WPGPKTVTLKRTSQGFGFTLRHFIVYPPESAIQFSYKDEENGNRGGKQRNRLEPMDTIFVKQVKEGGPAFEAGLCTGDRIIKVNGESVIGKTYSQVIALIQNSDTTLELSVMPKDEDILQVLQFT

T3: DFNB31_3, Q9P202
T3 sequence (Q9P202 811-907, limits assumed, looked up): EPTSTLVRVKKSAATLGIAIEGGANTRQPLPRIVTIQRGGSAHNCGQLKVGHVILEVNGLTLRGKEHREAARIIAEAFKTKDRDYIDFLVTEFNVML

T4: MPDZ_5, O75970
T4 sequence (O75970 695-796, limits assumed, looked up): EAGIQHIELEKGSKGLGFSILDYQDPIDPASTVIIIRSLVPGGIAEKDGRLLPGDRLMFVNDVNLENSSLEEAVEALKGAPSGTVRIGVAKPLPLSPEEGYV

T5: MPDZ_12, O75970
T5 sequence (O75970 1857-1958, limits assumed, looked up): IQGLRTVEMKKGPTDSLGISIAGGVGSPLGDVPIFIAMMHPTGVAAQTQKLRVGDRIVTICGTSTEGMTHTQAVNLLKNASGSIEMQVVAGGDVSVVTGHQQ

T6: MPP7, Q5T2T1
T6 sequence (Q5T2T1 134-230, limits assumed, looked up): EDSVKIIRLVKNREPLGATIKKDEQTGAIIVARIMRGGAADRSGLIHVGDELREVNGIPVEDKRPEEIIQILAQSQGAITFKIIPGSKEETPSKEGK

T7: GRIP1_4, Q9Y3R0
T7 sequence (Q9Y3R0 467-571, limits assumed, looked up): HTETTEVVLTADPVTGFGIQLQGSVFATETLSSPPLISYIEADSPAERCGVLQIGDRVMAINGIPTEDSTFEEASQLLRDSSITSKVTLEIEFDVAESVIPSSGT

T8: DFNB31_2, Q9P202
T8 sequence (Q9P202 274-371, limits assumed, looked up): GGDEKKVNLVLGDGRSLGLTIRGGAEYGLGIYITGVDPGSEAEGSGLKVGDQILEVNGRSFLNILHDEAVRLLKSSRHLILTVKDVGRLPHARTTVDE

T9: DLG3_2, Q92796
T9 sequence (Q92796 221-321, limits assumed, looked up): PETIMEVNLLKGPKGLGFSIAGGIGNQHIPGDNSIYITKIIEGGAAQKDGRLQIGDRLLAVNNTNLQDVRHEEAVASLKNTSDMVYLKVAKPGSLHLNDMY

T10: PDZD2_2, O15018
T10 sequence (O15018 329-429, limits assumed, looked up): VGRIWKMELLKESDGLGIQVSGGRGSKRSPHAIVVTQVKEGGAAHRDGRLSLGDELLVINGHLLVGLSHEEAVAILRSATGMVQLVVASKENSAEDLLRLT

T11: SNTA1, Q13424
T11 sequence (Q13424 82-180, limits assumed, looked up): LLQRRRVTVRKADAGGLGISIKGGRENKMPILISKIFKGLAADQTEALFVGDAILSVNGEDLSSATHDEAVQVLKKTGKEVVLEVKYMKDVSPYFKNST

T12: TX1BP3, O14907
T12 sequence (O14907 10-122, limits assumed, looked up): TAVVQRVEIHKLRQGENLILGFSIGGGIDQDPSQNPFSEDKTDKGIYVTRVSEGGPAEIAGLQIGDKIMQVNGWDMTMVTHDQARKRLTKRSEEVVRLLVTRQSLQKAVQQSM

T13: MPDZ_10, O75970
T13 sequence (O75970 1624-1722, limits assumed, looked up): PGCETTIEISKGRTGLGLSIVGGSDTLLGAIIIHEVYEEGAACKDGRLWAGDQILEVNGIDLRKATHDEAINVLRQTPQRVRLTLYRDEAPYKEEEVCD


target: Inadl_3, Q8NI35; test: holdup assay; set-up: key: below the threshold = too weak to quantify, mostly under pKd 3.1 to 4; conditions: plain residues with an end cap or a label only (N-terminal biotin on a linker: ado-ado)
Sequence (Q8NI35 359-469): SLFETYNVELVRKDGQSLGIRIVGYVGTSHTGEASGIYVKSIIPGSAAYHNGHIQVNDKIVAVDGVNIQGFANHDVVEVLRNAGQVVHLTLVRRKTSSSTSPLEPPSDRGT

pKd	Binder
3.86	TGLWKHETTV [ADGRA3, Q8IWK6]

target: TJP1_2, Q07157; test: holdup assay; set-up: key: below the threshold = too weak to quantify, mostly under pKd 3.1 to 4; conditions: plain residues with an end cap or a label only (N-terminal biotin on a linker: ado-ado)
Sequence (Q07157 181-274): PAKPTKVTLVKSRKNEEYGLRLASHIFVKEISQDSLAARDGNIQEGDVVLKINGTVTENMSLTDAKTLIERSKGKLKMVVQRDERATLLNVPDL

pKd	Binder
below the threshold	TGLWKHETTV [ADGRA3, Q8IWK6]

target: IL16_1, Q14005; test: holdup assay; set-up: key: below the threshold = too weak to quantify, mostly under pKd 3.1 to 4; conditions: plain residues with an end cap or a label only (N-terminal biotin on a linker: ado-ado)
Sequence (Q14005 210-306): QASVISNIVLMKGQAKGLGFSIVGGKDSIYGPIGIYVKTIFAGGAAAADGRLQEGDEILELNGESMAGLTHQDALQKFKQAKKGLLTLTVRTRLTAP

pKd	Binder
4.09	TGLWKHETTV [ADGRA3, Q8IWK6]

target: FRMPD3, Q5JV73; test: holdup assay; set-up: key: below the threshold = too weak to quantify, mostly under pKd 3.1 to 4; conditions: plain residues with an end cap or a label only (N-terminal biotin on a linker: ado-ado)
Sequence (Q5JV73 12-100): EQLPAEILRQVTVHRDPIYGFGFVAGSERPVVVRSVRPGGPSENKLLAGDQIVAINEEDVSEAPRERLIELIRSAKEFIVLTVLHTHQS

pKd	Binder
below the threshold	TGLWKHETTV [ADGRA3, Q8IWK6]

target: T1, PDZRN3_1, Q9UPQ7; test: holdup assay; set-up: key: below the threshold = too weak to quantify, mostly under pKd 3.1 to 4; conditions: plain residues with an end cap or a label only (N-terminal biotin on a linker: ado-ado)

pKd	Binder
4.25	TGLWKHETTV [ADGRA3, Q8IWK6]

target: Inadl_4, Q8NI35; test: holdup assay; set-up: key: below the threshold = too weak to quantify, mostly under pKd 3.1 to 4; conditions: plain residues with an end cap or a label only (N-terminal biotin on a linker: ado-ado)
Sequence (Q8NI35 547-651): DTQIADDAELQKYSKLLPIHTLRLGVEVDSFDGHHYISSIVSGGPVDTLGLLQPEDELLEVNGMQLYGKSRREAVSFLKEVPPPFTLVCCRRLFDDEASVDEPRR

pKd	Binder
below the threshold	TGLWKHETTV [ADGRA3, Q8IWK6]

target: T2, ARHGAP21, Q5T5U3; test: holdup assay; set-up: key: below the threshold = too weak to quantify, mostly under pKd 3.1 to 4; conditions: plain residues with an end cap or a label only (N-terminal biotin on a linker: ado-ado)

pKd	Binder
3.92	TGLWKHETTV [ADGRA3, Q8IWK6]

target: T3, DFNB31_3, Q9P202; test: holdup assay; set-up: key: below the threshold = too weak to quantify, mostly under pKd 3.1 to 4; conditions: plain residues with an end cap or a label only (N-terminal biotin on a linker: ado-ado)

pKd	Binder
3.85	TGLWKHETTV [ADGRA3, Q8IWK6]

target: LIMK2, P53671; test: holdup assay; set-up: key: below the threshold = too weak to quantify, mostly under pKd 3.1 to 4; conditions: plain residues with an end cap or a label only (N-terminal biotin on a linker: ado-ado)
Sequence (P53671 143-248): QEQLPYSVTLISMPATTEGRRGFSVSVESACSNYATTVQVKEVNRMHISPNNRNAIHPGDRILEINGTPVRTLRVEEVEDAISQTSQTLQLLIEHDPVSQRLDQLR

pKd	Binder
below the threshold	TGLWKHETTV [ADGRA3, Q8IWK6]

target: GRIP2_6, Q9C0E4; test: holdup assay; set-up: key: below the threshold = too weak to quantify, mostly under pKd 3.1 to 4; conditions: plain residues with an end cap or a label only (N-terminal biotin on a linker: ado-ado)
Sequence (Q9C0E4 648-740): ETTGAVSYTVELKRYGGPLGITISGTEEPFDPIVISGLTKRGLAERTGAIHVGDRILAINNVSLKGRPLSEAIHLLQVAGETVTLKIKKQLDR

pKd	Binder
3.55	TGLWKHETTV [ADGRA3, Q8IWK6]

target: T4, MPDZ_5, O75970; test: holdup assay; set-up: key: below the threshold = too weak to quantify, mostly under pKd 3.1 to 4; conditions: plain residues with an end cap or a label only (N-terminal biotin on a linker: ado-ado)

pKd	Binder
below the threshold	TGLWKHETTV [ADGRA3, Q8IWK6]

target: T5, MPDZ_12, O75970; test: holdup assay; set-up: key: below the threshold = too weak to quantify, mostly under pKd 3.1 to 4; conditions: plain residues with an end cap or a label only (N-terminal biotin on a linker: ado-ado)

pKd	Binder
below the threshold	TGLWKHETTV [ADGRA3, Q8IWK6]

target: T6, MPP7, Q5T2T1; test: holdup assay; set-up: key: below the threshold = too weak to quantify, mostly under pKd 3.1 to 4; conditions: plain residues with an end cap or a label only (N-terminal biotin on a linker: ado-ado)

pKd	Binder
below the threshold	TGLWKHETTV [ADGRA3, Q8IWK6]

target: T7, GRIP1_4, Q9Y3R0; test: holdup assay; set-up: key: below the threshold = too weak to quantify, mostly under pKd 3.1 to 4; conditions: plain residues with an end cap or a label only (N-terminal biotin on a linker: ado-ado)

pKd	Binder
below the threshold	TGLWKHETTV [ADGRA3, Q8IWK6]

target: MAGI3_2, Q5TCQ9; test: holdup assay; set-up: key: below the threshold = too weak to quantify, mostly under pKd 3.1 to 4; conditions: plain residues with an end cap or a label only (N-terminal biotin on a linker: ado-ado)
Sequence (Q5TCQ9 398-503): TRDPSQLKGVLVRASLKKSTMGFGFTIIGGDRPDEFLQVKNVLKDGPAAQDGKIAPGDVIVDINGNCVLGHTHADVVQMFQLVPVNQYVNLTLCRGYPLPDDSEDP

pKd	Binder
5.48	TGLWKHETTV [ADGRA3, Q8IWK6]

target: T8, DFNB31_2, Q9P202; test: holdup assay; set-up: key: below the threshold = too weak to quantify, mostly under pKd 3.1 to 4; conditions: plain residues with an end cap or a label only (N-terminal biotin on a linker: ado-ado)

pKd	Binder
below the threshold	TGLWKHETTV [ADGRA3, Q8IWK6]

target: HTRA1, Q92743; test: holdup assay; set-up: key: below the threshold = too weak to quantify, mostly under pKd 3.1 to 4; conditions: plain residues with an end cap or a label only (N-terminal biotin on a linker: ado-ado)
Sequence (Q92743 360-477): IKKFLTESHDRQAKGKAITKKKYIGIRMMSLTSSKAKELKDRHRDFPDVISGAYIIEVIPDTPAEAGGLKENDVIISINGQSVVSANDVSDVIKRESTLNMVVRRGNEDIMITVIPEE

pKd	Binder
4.32	TGLWKHETTV [ADGRA3, Q8IWK6]

target: T9, DLG3_2, Q92796; test: holdup assay; set-up: key: below the threshold = too weak to quantify, mostly under pKd 3.1 to 4; conditions: plain residues with an end cap or a label only (N-terminal biotin on a linker: ado-ado)

pKd	Binder
5.25	TGLWKHETTV [ADGRA3, Q8IWK6]

target: T10, PDZD2_2, O15018; test: holdup assay; set-up: key: below the threshold = too weak to quantify, mostly under pKd 3.1 to 4; conditions: plain residues with an end cap or a label only (N-terminal biotin on a linker: ado-ado)

pKd	Binder
4.2	TGLWKHETTV [ADGRA3, Q8IWK6]

target: T11, SNTA1, Q13424; test: holdup assay; set-up: key: below the threshold = too weak to quantify, mostly under pKd 3.1 to 4; conditions: plain residues with an end cap or a label only (N-terminal biotin on a linker: ado-ado)

pKd	Binder
4.58	TGLWKHETTV [ADGRA3, Q8IWK6]

target: T12, TX1BP3, O14907; test: holdup assay; set-up: key: below the threshold = too weak to quantify, mostly under pKd 3.1 to 4; conditions: plain residues with an end cap or a label only (N-terminal biotin on a linker: ado-ado)

pKd	Binder
5.08	TGLWKHETTV [ADGRA3, Q8IWK6]

target: PDLIM1, O00151; test: holdup assay; set-up: key: below the threshold = too weak to quantify, mostly under pKd 3.1 to 4; conditions: plain residues with an end cap or a label only (N-terminal biotin on a linker: ado-ado)
Sequence (O00151 1-87): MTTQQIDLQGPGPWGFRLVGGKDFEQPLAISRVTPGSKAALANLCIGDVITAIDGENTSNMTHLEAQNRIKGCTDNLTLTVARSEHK

pKd	Binder
below the threshold	TGLWKHETTV [ADGRA3, Q8IWK6]

target: T13, MPDZ_10, O75970; test: holdup assay; set-up: key: below the threshold = too weak to quantify, mostly under pKd 3.1 to 4; conditions: plain residues with an end cap or a label only (N-terminal biotin on a linker: ado-ado)

pKd	Binder
below the threshold	TGLWKHETTV [ADGRA3, Q8IWK6]

target: MAGI2_2, Q86UL8; test: holdup assay; set-up: key: below the threshold = too weak to quantify, mostly under pKd 3.1 to 4; conditions: plain residues with an end cap or a label only (N-terminal biotin on a linker: ado-ado)
Sequence (Q86UL8 410-522): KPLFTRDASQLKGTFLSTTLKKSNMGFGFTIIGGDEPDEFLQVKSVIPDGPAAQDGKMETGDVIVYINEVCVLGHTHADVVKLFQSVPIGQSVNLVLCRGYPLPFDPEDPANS

pKd	Binder
5.22	TGLWKHETTV [ADGRA3, Q8IWK6]
